{
  "source": "patent US20110091994A1",
  "about": "“Methods for Screening Compounds for Treating and/or Preventing an Hepatitis C Virus Infection” (priority 2008, published 2011);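 for IMAP Y2H IMAP1 (number of IST): yeast two-hybrid screens using HCV genotype 1b proteins fused to Gal4-DB as baits against prey cDNA libraries from human spleen and foetal brain, IMAP1 via transformation and IMAP2 via mating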;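 for IMAP Y2H IMAP2 (number of IST): yeast two-hybrid screens using HCV genotype 1b proteins fused to Gal4-DB as baits against prey cDNA libraries from human spleen and foetal brain, IMAP1 via transformation and IMAP2 via mating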;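 for Interaction with viral protein: yeast two-hybrid screens using HCV genotype 1b proteins fused to Gal4-DB as baits against prey cDNA libraries from human spleen and foetal brain, IMAP1 via transformation and IMAP2 via mating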",
  "molecules": {"B1": {"name": "CHPF (protein, UniProt Q8IZ52 1-775, looked up)", "Chondroitin sulfate synthase 2": "MRASLLLSVLRPAGPVAVGISLGFTLSLLSVTWVEEPCGPGPPQPGDSELPPRGNTNAARRPNSVQPGAEREKPGAGEGAGENWEPRVLPYHPAQPGQAAKKAVRTRYISTELGIRQRLLVAVLTSQTTLPTLGVAVNRTLGHRLERVVFLTGARGRRAPPGMAVVTLGEERPIGHLHLALRHLLEQHGDDFDWFFLVPDTTYTEAHGLARLTGHLSLASAAHLYLGRPQDFIGGEPTPGRYCHGGFGVLLSRMLLQQLRPHLEGCRNDIVSARPDEWLGRCILDATGVGCTGDHEGVHYSHLELSPGEPVQEGDPHFRSALTAHPVRDPVHMYQLHKAFARAELERTYQEIQELQWEIQNTSHLAVDGDQAAAWPVGIPAPSRPASRFEVLRWDYFTEQHAFSCADGSPRCPLRGADRADVADVLGTALEELNRRYHPALRLQKQQLVNGYRRFDPARGMEYTLDLQLEALTPQGGRRPLTRRVQLLRPLSRVEILPVPYVTEASRLTVLLPLAAAERDLAPGFLEAFATAALEPGDAAAALTLLLLYEPRQAQRVAHADVFAPVKAHVAELERRFPGARVPWLSVQTAAPSPLRLMDLLSKKHPLDTLFLLAGPDTVLTPDFLNRCRMHAISGWQAFFPMHFQAFHPAVAPPQGPGPPELGRDTGRFDRQAASEACFYNSDYVAARGRLAAASEQEEELLESLDVYELFLHFSSLHVLRAVEPALLQRYRAQTCSARLSEDLYHRCLQSVLEGLGSRTQLAMLLFEQEQGNST"}, "B2": {"name": "CCHCR1 (protein, UniProt Q8TD31 1-782, looked up)", "Coiled-coil alpha-helical rod …": "MFPPSGSTGLIPPSHFQARPLSTLPRMAPTWLSDIPLVQPPGHQDVSERRLDTQRPQVTMWERDVSSDRQEPGRRGRSWGLEGSQALSQQAEVIVRQLQELRRLEEEVRLLRETSLQQKMRLEAQAMELEALARAEKAGRAEAEGLRAALAGAEVVRKNLEEGSQRELEEVQRLHQEQLSSLTQAHEEALSSLTSKAEGLEKSLSSLETRRAGEAKELAEAQREAELLRKQLSKTQEDLEAQVTLVENLRKYVGEQVPSEVHSQTWELERQKLLETMQHLQEDRDSLHATAELLQVRVQSLTHILALQEEELTRKVQPSDSLEPEFTRKCQSLLNRWREKVFALMVQLKAQELEHSDSVKQLKGQVASLQEKVTSQSQEQAILQRSLQDKAAEVEVERMGAKGLQLELSRAQEARRRWQQQTASAEEQLRLVVNAVSSSQIWLETTMAKVEGAAAQLPSLNNRLSYAVRKVHTIRGLIARKLALAQLRQESCPLPPPVTDVSLELQQLREERNRLDAELQLSARLIQQEVGRAREQGEAERQQLSKVAQQLEQELQQTQESLASLGLQLEVARQGQQESTEEAASLRQELTQQQELYGQALQEKVAEVETRLREQLSDTERRLNEARREHAKAVVSLRQIQRRAAQEKERSQELRRLQEEARKEEGQRLARRLQELERDKNLMLATLQQEGLLSRYKQQRLLTVLPSLLDKKKSVVSSPRPPECSASAPVAAAVPTRESIKGSLSVLLDDLQDLSEAISKEEAVCQGDNLDRCSSSNPQMSS"}, "B3": {"name": "DEAF1 (protein, UniProt O75398 1-565, looked up)", "Deformed epidermal …": "MEDSDSAAKQLGLAEAAAVAAAAAVAAAAAAAAGGEAEEPVLSRDEDSEEDADSEAERETPRVTAVAVMAAEPGHMDMGAEALPGPDEAAAAAAFAEVTTVTVANVGAAADNVFTTSVANAASISGHVLSGRTALQIGDSLNTEKATLIVVHTDGSIVETTGLKGPAAPLTPGPQSPPTPLAPGQEKGGTKYNWDPSVYDSELPVRCRNISGTLYKNRLGSGGRGRCIKQGENWYSPTEFEAMAGRASSKDWKRSIRYAGRPLQCLIQDGILNPHAASCTCAACCDDMTLSGPVRLFVPYKRRKKENELPTTPVKKDSPKNITLLPATAATTFTVTPSGQITTSGALTFDRASTVEATAVISESPAQGDVFAGATVQEASVQPPCRASHPEPHYPGYQDSCQIAPFPEAALPTSHPKIVLTSLPALAVPPPTPTKAAPPALVNGLELSEPRSWLYLEEMVNSLLNTAQQLKTLFEQAKHASTYREAATNQAKIHADAERKEQSCVNCGREAMSECTGCHKVNYCSTFCQRKDWKDHQHICGQSAAVTVQADEVHVAESVMEKVTV"}, "B4": {"name": "CCDC66 (protein, UniProt A2RUB6 1-948, looked up)", "Coiled-coil domain-containing …": "MNLGDGLKLETELLDGKTKLILSPYEHKSKISVKMGNKAKIAKCPLRTKTGHILKSTQDTCIGSEKLLQKKPVGSETSQAKGEKNGMTFSSTKDLCKQCIDKDCLHIQKEISPATPNMQKTRNTVNTSLVGKQKPHKKHITAENMKSSLVCLTQDQLQQILMTVNQGNRSLSLTENGKEAKSQYSLYLNSISNQPKDENIMGLFKKTEMVSSVPAENKSVLNEHQETSKQCEQKIAIENEWKPADIFSTLGERECDRSSLEAKKAQWRKELDEQVALKKKEKEVSEKWNDPWKKSESDKIIWEKHQILDQSRETVLLEHPFSAVKQELQRKWIEELNKQIEDDRQRKIEEKIIYSKGEEHDRWAMHFDSLKSYPGSQSQLFSQSTHKQPEYFCVSPDTQELADVSSVCTPTTGSQVEPSEEEHIAKPIKDVVMANSKKTNFLRSMTALLDPAQIEERDRRRQKQLEHQKAITAQVEEKRRKKQLEEEQRKKEEQEEELRLAQEREEMQKQYEEDILKQKQKEEIMTLKTNELFQTMQRAQELAQRLKQEQRIRELAQKGHDTSRLIKNLGVDTIQMEYNASNISNSRHDSDEISGKMNTYMNSTTSKKDTGVQTDDLNIGIFTNAESHCGSLMERDITNCSSPEISAELIGQFSTKKNKQELTQDKGASLEKENNRCNDQCNQFTRIEKQTKHMKKYPKRPDWNINKPPKRYIPASEKYPKQLQKQREEKKVRRQMELLHLVEKNNPGHLSQNRGISPEIFHSSHQETESKLRWHLVKKEEEPLNIHSFSKERSPSSPVPVVKNRTQQTQNTLHLPLKNSSYERENLISGSNQTELSSGISESSHFIPYVRTNEIYYLDPDAPLSGPSTQDPQYQNSQDCGQKRQLFDSDCVRDPLLNPNMVKNRDRQQAILKGLSELRQGLLQKQKELESSLLPLAENQEESFGSSF"}, "B5": {"name": "CTGF (protein, UniProt P29279 27-349, looked up)", "CCN family member 2": "QNCSGPCRCPDEPAPRCPAGVSLVLDGCGCCRVCAKQLGELCTERDPCDPHKGLFCHFGSPANRKIGVCTAKDGAPCIFGGTVYRSGESFQSSCKYQCTCLDGAVGCMPLCSMDVRLPSPDCPFPRRVKLPGKCCEEWVCDEPKDQTVVGPALAAYRLEDTFGPDPTMIRANCLVQTTEWSACSKTCGMGISTRVTNDNASCRLEKQSRLCMVRPCEADLEENIKKGKKCIRTPKISKPIKFELSGCTSMKTYRAKFCGVCTDGRCCTPHRTTTLPVEFKCPDGEVMKKNMMFIKTCACHYNCPGDNDIFESLYYRKMYGDMA"}, "B6": {"name": "CORO1B (protein, UniProt Q9BR76 1-489, looked up)", "Coronin-1B": "MSFRKVVRQSKFRHVFGQPVKNDQCYEDIRVSRVTWDSTFCAVNPKFLAVIVEASGGGAFLVLPLSKTGRIDKAYPTVCGHTGPVLDIDWCPHNDEVIASGSEDCTVMVWQIPENGLTSPLTEPVVVLEGHTKRVGIIAWHPTARNVLLSAGCDNVVLIWNVGTAEELYRLDSLHPDLIYNVSWNHNGSLFCSACKDKSVRIIDPRRGTLVAEREKAHEGARPMRAIFLADGKVFTTGFSRMSERQLALWDPENLEEPMALQELDSSNGALLPFYDPDTSVVYVCGKGDSSIRYFEITEEPPYIHFLNTFTSKEPQRGMGSMPKRGLEVSKCEIARFYKLHERKCEPIVMTVPRKSDLFQDDLYPDTAGPEAALEAEEWVSGRDADPILISLREAYVPSKQRDLKISRRNVLSDSRPAMAPGSSHLGAPASTTTAADATPSGSLARAGEAGKLEEVMQELRALRALVKEQGDRICRLEEQLGRMENGDA"}, "B7": {"name": "CD5L (protein, UniProt O43866 20-347, looked up)", "CD5 antigen-like": "SPSGVRLVGGLHRCEGRVEVEQKGQWGTVCDDGWDIKDVAVLCRELGCGAASGTPSGILYEPPAEKEQKVLIQSVSCTGTEDTLAQCEQEEVYDCSHDEDAGASCENPESSFSPVPEGVRLADGPGHCKGRVEVKHQNQWYTVCQTGWSLRAAKVVCRQLGCGRAVLTQKRCNKHAYGRKPIWLSQMSCSGREATLQDCPSGPWGKNTCNHDEDTWVECEDPFDLRLVGGDNLCSGRLEVLHKGVWGSVCDDNWGEKEDQVVCKQLGCGKSLSPSFRDRKCYGPGVGRIWLDNVRCSGEEQSLEQCQHRFWGFHDCTHQEDVAVICSG"}},
  "data": [
    {"target": "T1, HCV proteins (Hepatitis C virus genotype 1b, UniProt Q9WMX2)", "T1 construct": "expressed in transfected cells", "T1 sequence (Q9WMX2 1027-1657)": "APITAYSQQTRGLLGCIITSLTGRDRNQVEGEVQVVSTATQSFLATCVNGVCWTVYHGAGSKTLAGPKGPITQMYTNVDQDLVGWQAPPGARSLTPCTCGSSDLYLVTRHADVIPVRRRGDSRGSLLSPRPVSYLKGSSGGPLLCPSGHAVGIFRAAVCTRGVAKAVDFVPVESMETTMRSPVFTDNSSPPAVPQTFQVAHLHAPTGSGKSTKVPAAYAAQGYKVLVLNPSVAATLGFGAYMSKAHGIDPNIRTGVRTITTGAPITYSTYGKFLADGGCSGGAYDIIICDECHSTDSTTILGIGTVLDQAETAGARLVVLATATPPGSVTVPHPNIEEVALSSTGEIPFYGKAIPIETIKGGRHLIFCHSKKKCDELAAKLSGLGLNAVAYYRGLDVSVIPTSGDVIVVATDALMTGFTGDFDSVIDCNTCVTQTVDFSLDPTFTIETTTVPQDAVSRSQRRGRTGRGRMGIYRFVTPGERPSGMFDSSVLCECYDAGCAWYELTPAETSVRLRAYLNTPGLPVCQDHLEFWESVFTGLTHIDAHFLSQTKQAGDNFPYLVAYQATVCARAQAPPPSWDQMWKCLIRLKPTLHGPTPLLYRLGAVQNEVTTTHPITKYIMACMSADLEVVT", "assay": "Validation by Y2H pairwise matrices;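 note: yeast two-hybrid pairwise tests of interactions first found in Y2H screens of HCV bait proteins against human cDNA libraries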", "type": "binding", "conditions": "validation of interaction with HCV protein NS3", "values": [
      {"molecule": "B1", "Y2H matrices": "+"},
      {"molecule": "B2", "Y2H matrices": "+"},
      {"molecule": "B3", "Y2H matrices": "+"},
      {"molecule": "B4", "Y2H matrices": "+"},
      {"molecule": "B5", "Y2H matrices": "+"},
      {"molecule": "B6", "Y2H matrices": "+"},
      {"molecule": "B7", "Y2H matrices": "+"}
    ]},
    {"tested_on": "HCV ORFs (Gal4-DB fusions)", "assay": "not given", "type": "binding, HCV genotype 1b, isolate con1", "conditions": "human protein listed by gene symbol; the value names the HCV protein it interacts with", "values": [
      {"molecule": "B1", "Interaction with viral protein": "NS3"},
      {"molecule": "B2", "Interaction with viral protein": "NS3"},
      {"molecule": "B3", "Interaction with viral protein": "NS3"},
      {"molecule": "B4", "Interaction with viral protein": "NS3"},
      {"molecule": "B5", "Interaction with viral protein": "NS3"},
      {"molecule": "B6", "Interaction with viral protein": "NS3"},
      {"molecule": "B7", "Interaction with viral protein": "NS3"}
    ]},
    {"target": "T2, HCV ORFs (Gal4-DB fusions) (Hepatitis C virus genotype 1b, UniProt Q9WMX2)", "T2 construct": "expressed in transfected cells; host or cells: Saccharomyces cerevisiae MAV203 (IMAP1) / AH109 (IMAP2)", "T2 sequence (Q9WMX2 1027-1657)": "as above", "assay": "not given", "type": "binding, HCV genotype 1b, isolate con1", "conditions": "HCV protein NS3 as bait; human protein as prey", "values": [
      {"molecule": "B1", "IMAP Y2H IMAP1 (number of IST)": 1},
      {"molecule": "B2", "IMAP Y2H IMAP1 (number of IST)": 1, "IMAP Y2H IMAP2 (number of IST)": 2},
      {"molecule": "B3", "IMAP Y2H IMAP1 (number of IST)": 6},
      {"molecule": "B4", "IMAP Y2H IMAP1 (number of IST)": 1, "IMAP Y2H IMAP2 (number of IST)": 4},
      {"molecule": "B5", "IMAP Y2H IMAP1 (number of IST)": 1},
      {"molecule": "B6", "IMAP Y2H IMAP1 (number of IST)": 8},
      {"molecule": "B7", "IMAP Y2H IMAP1 (number of IST)": 1, "IMAP Y2H IMAP2 (number of IST)": 1}
    ]}
  ]
}
